Measured values taken from PMC9616769, “Deconstruction of Neurotrypsin Reveals a Multi-factorially Regulated Activity Affecting Myotube Formation and Neuronal Excitability” (Molecular Neurobiology, 2022).

Target: the molecule itself
Assay: SEC-MALS; Protein KW.802.5 (Shodex) column, 1 mL/min, 50 mM TRIS/HCl, 500 mM NaCl, pH 8.0; protein conjugate analysis

B1: AGR-124 (human agrin y4z19, FS9-LG3 domains, Ala893-Pro2068) (domain or fragment)
chain: not shown
modifications: glycans (limited N-linked, presumably O-linked) contributing around 10% of the total mass
notes: human agrin y4z19, 9th FS domain to the last LG domain (FS9-LG3), Ala893-Pro2068; codon-optimized synthetic gene; Tag removed with TEV protease; also called agrin-like AGR-124 substrate; source: SFM-HEK293 suspension cells, transient transfection; purified from the medium (Ni-IMAC, heparin, SEC); not shown: 6xHis, N-terminal, cleaved
  binding result: binds
